Results taken from patent US20140328850A1 (Amgen, published 2014).
No end group written: not given here.

What was measured:
apelin = apelin (UniProt Q9ULZ1 65-77, limits assumed); assay: cell-based or functional assay
apelin 12 = molecular target: T1, apelin 12 (UniProt Q9ULZ1 66-77); assay: BIAcore solution equilibrium binding: Ab A pre-incubated with apelin 12, injected over immobilised biotin-labeled apelin; one-site homogeneous model
T1 construct: domain: apelin 12
T1 peptide (looked up): RPRLSHKGPMPF
Description: Binding affinity of Ab A was determined using BIAcore solution equilibrium binding analysis. Briefly, biotin-labeled apelin was immobilized at high density on a neutravidin surface. Ab A was incubated with apelin 12 at RT for over 4 hours before injected over the immobilized surfaces. The dissociation equilibrium constant (Kd) was obtained from a nonlinear regression analysis of the competition curve using a one-site homogeneous binding model (KinExATM Pro software).

apelin 12-2 = molecular target: T2, apelin 12-2 (also: biotinylated, position not given here); assay: ELISA: biotinylated peptide captured on neutravidin plate, antibody detected with HRP goat anti-mouse Fc, OD650; one point per peptide, antibody concentration not given
T2 construct: also called peptide 11
T2 peptide: RPRLSHKGPMP
Description: (§1) The antibody binding site was mapped using an ELISA-based assay. Briefly, various biotinylated apelin peptides (SEQ ID NOs: 7-22) were captured onto neutravidin coated plates and incubated with apelin antibody. Bound antibody was detected with horseradish peroxidase-conjugated goat anti-mouse Fc in the presence of the chromogenic substrate. The absorbance was read at 650 nm. Ab A is believed to neutralize all active forms of apelin.

apelin 12-3 = molecular target: T3, apelin 12-3 (also: biotinylated, position not given here); assay: as above
T3 construct: also called peptide 12
T3 peptide: RPRLSHKGPM
Description: as §1

apelin 12-4 = molecular target: T4, apelin 12-4 (also: biotinylated, position not given here); assay: as above
T4 construct: also called peptide 13
T4 peptide: RPRLSHKGP
Description: as §1

apelin 12-5 = molecular target: T5, apelin 12-5 (also: biotinylated, position not given here); assay: as above
T5 construct: also called peptide 14
T5 peptide: RPRLSHKG
Description: as §1

pyro13 C-blot = molecular target: T6, pyro13 C-blot (N-terminal pGlu as printed; biotinylated; the sheet prints 'C-blot', meaning not explained); assay: as above
T6 construct: also called peptide 3
T6 peptide: ERPRLSHKGPMPF
Description: as §1

F13A = molecular target: T7, F13A (also: biotinylated, position not given here); assay: as above
T7 construct: apelin 13 with A in place of the C-terminal F; also called peptide 4
T7 peptide: QRPRLSHKGPMPA
Description: as §1

apelin 11 = molecular target: T8, apelin 11 (also: biotinylated, position not given here); assay: as above
T8 construct: also called peptide 6
T8 peptide: PRLSHKGPMPF
Description: as §1

B1: antibody A (Ab A) (antibody, V domains shown)
VH: NVQLVESGGGLVKPGGSLKLSCVASGFIFSDYVMSWVRQTPEKRLEWVATISDGGIYTSYPDNIKGRFTISRDNANNKLYLQMSHLRSEDTAMYFCSRAAITSDDFDFWGQGTALTVSS
VL: DIVMSQSPSSLAVSAGEKVTMSCKSSQSLLDSRTRKNYLAWYQQKPGQSPKLLISWASIRESGVPDRFTGSGSGTDFTLSISSVQAEDLAVYYCKQSYYLLTFGAGTKLELKR
notes: also called apelin antibody; apelin Ab
apelin
  IC50: inhibition of the apelin-induced change of cAMP (HTRF ratio 665/620) in CHOK1-human APJ cells, 6 nM apelin, 500 nM forskolin: 18.2 nM
Apelin 12
  Kd: 6 nM
Apelin 12-2
  binding result: binds
Apelin 12-3
  binding result: binds
Apelin 12-4
  binding result: binds
Apelin 12-5
  binding result: binds
pyro13 C-blot
  binding result: binds
F13A
  binding result: binds
Apelin 11
  binding result: binds
